{
  "source": "paper PMC12212125",
  "about": "“Constitutively active Arabidopsis cryptochrome two alleles identified using yeast selection and deep mutational scanning” (The Journal of Biological Chemistry, 2025)",
  "key": {"[1]": {"biological_target": "pCRY-PHR D393S (amino acids 1-504) (Chlamydomonas reinhardtii)", "experiment": "SEC; Superdex 200 Increase 10/300 GL, under light exclusion at 4 °C, 50 mM Tris pH 7.8, 100 mM NaCl, 1 mM ATP, 1 mM MgCl2; samples at OD450 = 1; apparent masses from calibration"}, "[2]": {"biological_target": "T1, pCRY-PHR (plant cryptochrome pCRY, PHR domain) (Chlamydomonas reinhardtii, UniProt Q42696, D393S)", "T1 construct": "gene CPH1; PHR domain, amino acids 1-504, N-terminal His6 and C-terminal StrepII tags (printed for D393S), E. coli BL21(DE3), pET-28a(+); theoretical mass 59 kDa, wild type monomeric in the dark", "T1 sequence (Q42696 entry or part of it D393S)": "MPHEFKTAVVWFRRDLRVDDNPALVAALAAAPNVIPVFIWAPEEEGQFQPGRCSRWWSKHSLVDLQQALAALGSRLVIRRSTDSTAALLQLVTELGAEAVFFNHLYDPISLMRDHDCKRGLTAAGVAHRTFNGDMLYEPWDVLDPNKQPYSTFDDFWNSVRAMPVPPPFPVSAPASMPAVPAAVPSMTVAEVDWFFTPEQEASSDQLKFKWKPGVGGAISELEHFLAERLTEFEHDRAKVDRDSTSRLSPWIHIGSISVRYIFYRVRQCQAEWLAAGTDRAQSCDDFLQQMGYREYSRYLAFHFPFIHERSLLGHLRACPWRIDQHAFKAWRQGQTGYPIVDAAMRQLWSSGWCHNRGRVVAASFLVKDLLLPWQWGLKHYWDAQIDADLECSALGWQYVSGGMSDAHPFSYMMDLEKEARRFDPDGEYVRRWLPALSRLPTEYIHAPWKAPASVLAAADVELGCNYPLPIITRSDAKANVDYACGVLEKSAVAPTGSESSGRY", "experiment": "UV-vis absorbance and time-resolved UV-vis difference spectroscopy of purified protein", "assay_type": "binding", "conditions": "50 mM phosphate pH 7.8, 100 mM NaCl, 3 mM ATP, 1% glycerol, 10 °C, with or without 2 mM DTT; co-purified chromophore; time-resolved spectra at 13 °C without DTT"}, "[3]": {"biological_target": "Region II mutations (V367M, K368E, Y399S, S401F, P405L) placed in the CRY2PHR background", "experiment": "two-hybrid; BD-CRY2PHR (1-498) variants and AD-CIB1, AH109 x Y187, beta-galactosidase reporter (Miller Units, ONPG), dark for 2 h"}, "[4]": {"biological_target": "T2, CRY2PHR (residues 1-498 of CRY2, lacking the CCE), Gal4BD fusion, wild type (Arabidopsis thaliana, UniProt Q96524 1-498)", "T2 construct": "Cryptochrome 2 (CRY2), Arabidopsis thaliana, photolyase homology region, residues 1-498; also called BD-CRY2PHR; pDBTrp-CRY2PHR; source: yeast two-hybrid fusion (AH109 x Y187)", "T2 sequence (Q96524 1-498)": "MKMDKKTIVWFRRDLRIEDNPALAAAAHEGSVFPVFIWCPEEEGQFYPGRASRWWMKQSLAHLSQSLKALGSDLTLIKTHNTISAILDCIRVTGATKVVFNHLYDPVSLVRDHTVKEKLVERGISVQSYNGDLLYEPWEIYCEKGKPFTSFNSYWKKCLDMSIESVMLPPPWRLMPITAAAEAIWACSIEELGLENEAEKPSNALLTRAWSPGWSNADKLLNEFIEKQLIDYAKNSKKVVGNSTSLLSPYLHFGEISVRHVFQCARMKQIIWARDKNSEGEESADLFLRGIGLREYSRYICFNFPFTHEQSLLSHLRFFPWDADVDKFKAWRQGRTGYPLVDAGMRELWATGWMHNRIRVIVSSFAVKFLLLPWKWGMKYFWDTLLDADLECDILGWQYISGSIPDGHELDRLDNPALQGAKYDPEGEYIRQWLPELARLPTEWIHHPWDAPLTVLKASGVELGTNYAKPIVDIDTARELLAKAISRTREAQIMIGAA", "experiment": "two-hybrid; BD-CRY2PHR (1-498) variants and AD-CIB1, AH109 x Y187, beta-galactosidase reporter (Miller Units, ONPG), light for 2 h", "conditions": "partners not purified"}},
  "data": [
    {"molecule": "pCRY-PHR D393S (amino acids 1-504) (domain or fragment)", "values": [
      {"measurement": "stoichiometry N", "setting": "[1]", "result": 2}
    ]},
    {"molecule": "Cc1cc2nc3c(=O)[nH]c(=O)nc-3n(C[C@H](O)[C@H](O)[C@H](O)COP(=O)(O)OP(=O)(O)OC[C@H]3O[C@@H](n4cnc5c(N)ncnc54)[C@H](O)[C@@H]3O)c2cc1C", "note": "[FAD]", "values": [
      {"measurement": "UV-vis absorbance and time-resolved UV-vis difference spectroscopy of purified p", "setting": "[2]", "result": "The D393S mutant forms homomers in the dark with oxidized FAD bound"}
    ]},
    {"molecule": "CRYPTOCHROME-… BASIC-HELIX-LOOP-HELIX 1 (CIB1), Gal4AD fusion (natural protein) MNGAIGGDLLLNFPDMSVLERQRAHLKYLNPTFDSPLAGFFADSSMITGGEMDSYLSTAGLNLPMMYGETTVEGDSRLSISPETTLGTGNFKKRKFDTETKDCNEKKKKMTMNRDDLVEEGEEEKSKITEQNNGSTKSIKKMKHKAKKEENNFSNDSSKVTKELEKTDYIHVRARRGQATDSHSIAERVRREKISERMKFLQDLVPGCDKITGKAGMLDEIINYVQSLQRQIEFLSMKLAIVNPRPDFDMDDIFAKEVASTPMTVVPSPEMVLSGYSHEMVHSGYSSEMVNSGYLHVNPMQQVNTSSDPLSCFNNGEAPSMWDSHVQNLYGNLGV", "values": [
      {"measurement": "fold higher basal (dark) interaction than wild-type CRY2PHR (beta-galactosidase reporter)", "setting": "[3]", "result": "4 to 7", "unit": "fold"}
    ]},
    {"molecule": "CRYPTOCHROME-INTERACTING BASIC-HELIX-LOOP-HELIX 1 (CIB1), Gal4AD fusion (natural protein, Arabidopsis thaliana, UniProt Q8GY61 1-335, looked up, CIB1, transcription factor, Arabidopsis thaliana; also called GalAD-CIB1; Gal4AD-CIB1; source: yeast two-hybrid fusion (MaV203; Y187, mated to AH109)) MNGAIGGDLLLNFPDMSVLERQRAHLKYLNPTFDSPLAGFFADSSMITGGEMDSYLSTAGLNLPMMYGETTVEGDSRLSISPETTLGTGNFKKRKFDTETKDCNEKKKKMTMNRDDLVEEGEEEKSKITEQNNGSTKSIKKMKHKAKKEENNFSNDSSKVTKELEKTDYIHVRARRGQATDSHSIAERVRREKISERMKFLQDLVPGCDKITGKAGMLDEIINYVQSLQRQIEFLSMKLAIVNPRPDFDMDDIFAKEVASTPMTVVPSPEMVLSGYSHEMVHSGYSSEMVNSGYLHVNPMQQVNTSSDPLSCFNNGEAPSMWDSHVQNLYGNLGV", "values": [
      {"measurement": "fold increase of interaction (beta-galactosidase reporter) in light over dark", "setting": "[4]", "result": 4, "unit": "fold"}
    ]}
  ]
}
